Reference: patent publication US20110190196A1 (University of California, published 2011)
Like-named read-outs stand apart in the source and are kept apart here.

What was measured:
Test in all cases: cell-based or functional assay
[1] = target: T1, ATP-binding cassette transporter A1 (ABCA1) (UniProt P41233 1-2261, limits assumed)
[2] = target: T1, ATP-binding cassette transporter A1 …; remark: listed apart in the source
[3] = target: T1, ATP-binding cassette transporter A1 …; remark: listed apart in the source
[4] = target: T1, ATP-binding cassette transporter A1 …; remark: listed apart in the source
[5] = target: T1, ATP-binding cassette transporter A1 …; remark: listed apart in the source
[6] = target: T1, ATP-binding cassette transporter A1 …; remark: listed apart in the source
[7] = target: T1, ATP-binding cassette transporter A1 …; remark: listed apart in the source
[8] = target: T1, ATP-binding cassette transporter A1 …; remark: listed apart in the source

T1 sequence (P41233 whole entry): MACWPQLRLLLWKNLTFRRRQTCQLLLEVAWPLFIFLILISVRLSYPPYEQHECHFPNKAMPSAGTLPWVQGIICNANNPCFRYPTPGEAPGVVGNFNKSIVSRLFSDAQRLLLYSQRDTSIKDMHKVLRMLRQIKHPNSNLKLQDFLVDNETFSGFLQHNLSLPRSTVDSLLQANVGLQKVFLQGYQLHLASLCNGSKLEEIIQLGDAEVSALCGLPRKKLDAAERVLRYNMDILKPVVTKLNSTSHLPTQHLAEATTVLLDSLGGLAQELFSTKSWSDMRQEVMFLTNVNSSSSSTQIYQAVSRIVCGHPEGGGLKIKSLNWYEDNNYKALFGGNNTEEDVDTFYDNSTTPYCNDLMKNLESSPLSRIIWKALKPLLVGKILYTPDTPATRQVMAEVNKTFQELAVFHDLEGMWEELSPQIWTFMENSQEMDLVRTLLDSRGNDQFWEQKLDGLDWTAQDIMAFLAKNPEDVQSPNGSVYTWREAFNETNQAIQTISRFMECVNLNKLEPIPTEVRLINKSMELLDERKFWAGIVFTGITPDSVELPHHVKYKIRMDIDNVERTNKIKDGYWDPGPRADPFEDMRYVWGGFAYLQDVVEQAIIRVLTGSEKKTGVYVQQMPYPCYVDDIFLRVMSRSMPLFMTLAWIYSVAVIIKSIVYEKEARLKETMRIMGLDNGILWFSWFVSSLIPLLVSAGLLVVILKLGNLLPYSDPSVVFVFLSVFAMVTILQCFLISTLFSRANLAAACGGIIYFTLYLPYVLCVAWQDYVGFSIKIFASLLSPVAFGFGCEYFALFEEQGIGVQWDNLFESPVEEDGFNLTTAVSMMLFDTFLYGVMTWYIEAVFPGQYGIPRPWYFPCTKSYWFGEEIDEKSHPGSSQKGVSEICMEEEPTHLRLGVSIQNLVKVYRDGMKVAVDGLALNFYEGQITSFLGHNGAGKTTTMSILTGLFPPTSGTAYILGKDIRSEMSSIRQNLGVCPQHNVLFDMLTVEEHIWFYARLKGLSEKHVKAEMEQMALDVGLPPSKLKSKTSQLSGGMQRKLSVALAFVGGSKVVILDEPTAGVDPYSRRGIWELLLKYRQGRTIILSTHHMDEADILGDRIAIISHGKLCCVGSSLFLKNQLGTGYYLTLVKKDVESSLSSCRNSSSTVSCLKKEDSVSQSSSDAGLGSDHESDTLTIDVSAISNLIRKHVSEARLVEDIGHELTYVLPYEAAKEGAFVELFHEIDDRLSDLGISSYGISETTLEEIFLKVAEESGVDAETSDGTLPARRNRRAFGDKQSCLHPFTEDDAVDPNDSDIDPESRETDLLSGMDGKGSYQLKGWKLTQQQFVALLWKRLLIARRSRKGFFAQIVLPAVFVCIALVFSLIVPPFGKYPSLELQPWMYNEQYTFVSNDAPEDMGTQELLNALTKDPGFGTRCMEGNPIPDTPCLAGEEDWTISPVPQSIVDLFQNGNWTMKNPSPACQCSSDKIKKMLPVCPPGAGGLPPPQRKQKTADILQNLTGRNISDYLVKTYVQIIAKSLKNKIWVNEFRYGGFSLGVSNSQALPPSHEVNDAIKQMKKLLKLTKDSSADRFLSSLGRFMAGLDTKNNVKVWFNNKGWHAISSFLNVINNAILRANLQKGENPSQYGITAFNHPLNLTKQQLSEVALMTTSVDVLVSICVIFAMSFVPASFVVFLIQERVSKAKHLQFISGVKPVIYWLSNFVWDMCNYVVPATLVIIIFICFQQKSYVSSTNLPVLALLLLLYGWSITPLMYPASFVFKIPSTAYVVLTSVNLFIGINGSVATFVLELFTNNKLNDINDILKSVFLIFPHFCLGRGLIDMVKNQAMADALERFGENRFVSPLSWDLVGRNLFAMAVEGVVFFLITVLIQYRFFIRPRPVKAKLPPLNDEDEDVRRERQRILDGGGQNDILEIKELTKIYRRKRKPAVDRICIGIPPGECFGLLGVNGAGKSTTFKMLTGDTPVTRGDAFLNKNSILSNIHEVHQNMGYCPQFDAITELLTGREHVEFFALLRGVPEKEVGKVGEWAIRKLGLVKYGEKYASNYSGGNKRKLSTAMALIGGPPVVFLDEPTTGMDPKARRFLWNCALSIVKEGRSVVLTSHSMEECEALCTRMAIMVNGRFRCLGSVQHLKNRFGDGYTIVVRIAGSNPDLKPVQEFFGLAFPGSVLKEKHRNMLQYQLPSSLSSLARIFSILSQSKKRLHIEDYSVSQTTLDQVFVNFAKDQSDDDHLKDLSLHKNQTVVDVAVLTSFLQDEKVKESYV

% cholesterol efflux/8 hours, No cAMP [2] [%]	% cholesterol efflux/8 hours, Plus cAMP [2] [%]	% cholesterol efflux/4 hours at 0.1 µg/ml [3] [%]	% cholesterol efflux/4 hours at 0.3 µg/ml [3] [%]	% cholesterol efflux/4 hours at 1.0 µg/ml [3] [%]	% cholesterol efflux/4 hours at 3.0 µg/ml [3] [%]	% cholesterol efflux/4 hours at 10 µg/ml [3] [%]	% cholesterol efflux/4 hours at 30 µg/ml [3] [%]	% cholesterol efflux/8 hours, No cAMP [4] [%]	% cholesterol efflux/8 hours, Plus cAMP [4] [%]	% cholesterol efflux/4 hours at 0.1 µg/ml [5] [%]	% cholesterol efflux/4 hours at 0.3 µg/ml [5] [%]	% cholesterol efflux/4 hours at 1.0 µg/ml [5] [%]	% cholesterol efflux/4 hours at 3.0 µg/ml [5] [%]	% cholesterol efflux/4 hours at 10 µg/ml [5] [%]	% cholesterol efflux/4 hours at 30 µg/ml [5] [%]	Molecule	further results
4.2	9.04	0.58	1.34	2.56	4.84	4.17	5.55	–	–	–	–	–	–	–	–	DLRDRLDAWLDLLRDLLDRL [N1154-11]	–
2.66	8.25	0.58	1	2.12	5.25	4.15	3.7	–	–	–	–	–	–	–	–	ELRDRLEAWLDLLRELLERL [N1154-10]	–

The remaining lines, values behind:

Molecule	% cholesterol efflux/8 hours, No cAMP [2] [%]	% cholesterol efflux/8 hours, Plus cAMP [2] [%]	% cholesterol efflux/4 hours at 0.1 µg/ml [3] [%]	% cholesterol efflux/4 hours at 0.3 µg/ml [3] [%]	% cholesterol efflux/4 hours at 1.0 µg/ml [3] [%]	% cholesterol efflux/4 hours at 3.0 µg/ml [3] [%]	% cholesterol efflux/4 hours at 10 µg/ml [3] [%]	% cholesterol efflux/4 hours at 30 µg/ml [3] [%]	% cholesterol efflux/8 hours, No cAMP [4] [%]	% cholesterol efflux/8 hours, Plus cAMP [4] [%]	% cholesterol efflux/4 hours at 0.1 µg/ml [5] [%]	% cholesterol efflux/4 hours at 0.3 µg/ml [5] [%]	% cholesterol efflux/4 hours at 1.0 µg/ml [5] [%]	% cholesterol efflux/4 hours at 3.0 µg/ml [5] [%]	% cholesterol efflux/4 hours at 10 µg/ml [5] [%]	% cholesterol efflux/4 hours at 30 µg/ml [5] [%]	further results
lipid-free apolipoprotein(apo)A-I (from UniProt P02647 19-267) (ligand)	–	–	–	–	–	–	–	–	–	–	–	–	–	–	–	–	Km of cholesterol efflux stimulation, mass basis (4 h efflux data, cAMP-treated J774 cells) [1]: 3.4 µg/mL; Km of cholesterol efflux stimulation, molar basis [1]: 0.12
ELRERLEAWFELFREFLERF [N1154-1]	–	–	–	–	–	–	–	–	1.85	5.2	0.1	0.41	2.06	5.11	4.44	3.67	–
ELRDRLEAWFDLFREFLERF [N1154-4]	–	–	–	–	–	–	–	–	2.59	11.4	0	1.3	3.51	4.14	5.02	3.65	–
DLRDKLDAWLDLLRDLLDRL [N1154-9]	1.81	4.83	0.08	0.43	1.81	3.48	3.31	4.35	–	–	–	–	–	–	–	–	–
DLRDRLDAWFDLFRDFLDRF [N1154-5]	–	–	–	–	–	–	–	–	3.06	9.88	0	1.92	2.77	5.28	5.29	3.53	–
ELRDKLEAWLDLLRELLERL [N1154-8]	1.31	4.38	0	0.48	1.51	3.41	2.99	3.02	–	–	–	–	–	–	–	–	–
DLRDKLDAWFDLFRDFLDRF [N1154-3]	–	–	–	–	–	–	–	–	1.61	3.29	0	0.19	1.31	2.66	2.12	2.21	–
ELRDKLEAWFDLFREFLERF [N1154-2]	–	–	–	–	–	–	–	–	1.47	3	0.03	0.51	2.17	2.59	2.14	1.66	–
ELREKLEAWFELFREFLERF [SEQ ID NO:2 peptide]	–	–	–	–	–	–	–	–	–	–	–	–	–	–	–	–	% cholesterol efflux/4 hours at 0.1 µg/ml [6]: 0.15%; % cholesterol efflux/4 hours at 0.3 µg/ml [6]: 0.52%; % cholesterol efflux/4 hours at 1.0 µg/ml [6]: 1.72%; % cholesterol efflux/4 hours at 3.0 µg/ml [6]: 4.6%; % cholesterol efflux/4 hours at 10 µg/ml [6]: 3.62%; % cholesterol efflux/4 hours at 30 µg/ml [6]: 3.66%; efficiency of cholesterol efflux against apoA-I, mass basis [7]: ~5 fold; % cholesterol efflux/8 hours, +cAMP [8]: 5.26%; % cholesterol efflux/8 hours, -cAMP [8]: 2.29%
